The source of these data is US20100143262A1, “Method for Identifying Allergenic Proteins And Peptides” (priority 2008, published 2010).

Sequences and labels used below:
B1: BSA_F2: recombinant fragment 2 of BSA, 189 aa, sequence in Table 1A (protein)
chain: MARQRLRCASIQKFGERALKAWSVARLSQKEPKAEFVEVTKLVTDLTKVHKECCHGDLLECADDRADLAKYICDNQDTISSKLKECCDKPLLEKSHCIAEVEKDAIPENLPPLTADFAEDKDVCKNYQEAKDAFLGSFLYEYSRRHPEYAVSVLLRLAKEYEATLEECCAKDDPHACYSTVFDKLKHLVDEHHHHHH
B2: human alpha-lactalbumin (protein)
chain: KQFTKCELSQLLKDIDGYGGIALPELICTMFHTSGYDTQAIVENNESTEYGLFQISNKLWCKSSQVPQSRNICDISCDKFLDDDITDDIMCAKKILDIKGIDYWLAHKALCTEKLEQWLCEKL
notes: natural purified protein
B3: recombinant alphaS1-casein (protein)
chain: RPKHPIKHQGLPQEVLNENLLRFFVAPFPEVFGKEKVNELSKDIGSESTEDQAMEDIKQMEAESISSSEEIVPNSVEQKHIQKEDVPSERYLGYLEQLLRLKKYKVPQLEIVPNSAEERLHSMKEGIHAQQKEPMIGVNQELAYFYPELFRQFYQLDAYPSGAWYYVPLGTQYTDAPSFSDIPNPIGSENSEKTTMPLW
notes: expressed in E. coli
B4: BSA_F1: recombinant fragment 1 of BSA, 190 aa, sequence in Table 1A (protein)
chain: MRGVFRRDTHKSEIAHRFKDLGEEHFKGLVLIAFSQYLQQCPFDEHVKLVNELTEFAKTCVADESHAGCEKSLHTLFGDELCKVASLRETYGDMADCCEKQEPERNECFLSHKDDSPDLPKLKPDPNTLCDEFKADEKKFWGKYLYEIARRHPYFYAPELLYYANKYNGVFQECCQAEDKGACLLPKIETMREKVLTSSHHHHHH
B5: lactoferrin (protein, UniProt P24627 20-708, looked up)
Lactotransferrin: APRKNVRWCTISQPEWFKCRRWQWRMKKLGAPSITCVRRAFALECIRAIAEKKADAVTLDGGMVFEAGRDPYKLRPVAAEIYGTKESPQTHYYAVAVVKKGSNFQLDQLQGRKSCHTGLGRSAGWIIPMGILRPYLSWTESLEPLQGAVAKFFSASCVPCIDRQAYPNLCQLCKGEGENQCACSSREPYFGYSGAFKCLQDGAGDVAFVKETTVFENLPEKADRDQYELLCLNNSRAPVDAFKECHLAQVPSHAVVARSVDGKEDLIWKLLSKAQEKFGKNKSRSFQLFGSPPGQRDLLFKDSALGFLRIPSKVDSALYLGSRYLTTLKNLRETAEEVKARYTRVVWCAVGPEEQKKCQQWSQQSGQNVTCATASTTDDCIVLVLKGEADALNLDGGYIYTAGKCGLVPVLAENRKSSKHSSLDCVLRPTEGYLAVAVVKKANEGLTWNSLKDKKSCHTAVDRTAGWNIPMGLIVNQTGSCAFDEFFSQSCAPGADPKSRLCALCAGDDQGLDKCVPNSKEKYYGYTGAFRCLAEDVGDVAFVKNDTVWENTNGESTADWAKNLNREDFRLLCLDGTRKPVTEAQSCHLAVAPNHAVVSRSDRAAHVKQVLLHQQALFGKNGKNCPDKFCLFKSETKNLLFNDNTECLAKLGGRPTYEEYLGTEYVTAIANLKKCSTSPLLEACAFLTR
notes: natural purified protein
B6: recombinant aS2-casein (protein)
chain: KNTMEHVSSSEESIISQETYKQEKNMAINPSKENLCSTFCKEVVRNANEEEYSIGSSSEESAEVATEEVKITVDDKHYQKALNEINQFYQKFPQYLQYLYQGPIVLNPWDQVKRNAVPITPTLNREQLSTSEENSKKTVDMESTEVFTKKTKLTEEEKNRLNFLKKISQRYQKFALPQYLKTVYQHQKAMKPWIQPKTKVIPYVRYL
notes: expressed in E. coli
B7: beta-lactoglobulin variant A (protein)
chain: LIVTQTMKGLDIQKVAGTWYSLAMAASDISLLDAQSAPLRVYVEELKPTPEGDLEILLQKWENDECAQKKIIAEKTKIPAVFKIDALNENKVLVLDTDYKKYLLFCMENSAEPEQSLVCQCLVRTPEVDDEALEKFDKALKALPMHIRLSFNPTQLEEQCHI
notes: natural purified protein
B8: BSA_F3: recombinant fragment 3 of BSA, 200 aa, sequence in Table 1A (protein)
chain: MPQNLIKQNCDQFEKLGEYGFQNALIVRYTRKVPQVSTPTLVEVSRSLGKVGTRCCTKPESERMPCTEDYLSLWNRLCVLHEKTPVSEKVTKCCTESLVNRRPCFSALTPDETYVPKAFDEKLFTFHADICTLPDTEKQIKKQTALVELLKHKPKATEEQLKTVMENFVAFVDKCCAADDKEACFAVEGPKLVVSTQTALAHHHHHH
B9: beta-casein (protein, UniProt P02666 16-224, looked up)
Beta-casein: RELEELNVPGEIVESLSSSEESITRINKKIEKFQSEEQQQTEDELQDKIHPFAQTQSLVYPFPGPIPNSLPQNIPPLTQTPVVVPPFLQPEVMGVSKVKEAMAPKHKEMPFPKYPVEPFTESQSLTLTDVENLHLPLPLLQSWMHQPHQPLPPTVMFPPQSVLSLSQSKVLPVPQKAVPYPQRDMPIQAFLLYQEPVLGPVRGPFPIIV
notes: natural purified protein
B10: recombinant beta-casein (protein)
chain: B9 Beta-casein
notes: expressed in E. coli

One test deals with serum IgE of cow's milk allergic patients. In words: IgE binding capacity (IgE reactivity) of milk components with patients' sera. Further details: species or system human. The following applies: sera of cow's milk allergic patients (n=78). The source says: (§1) Sera from 78 patients who were selected according to a positive case history, positive skin-prick reactions and determination of specific IgE to cow's milk extract using the CAP-FEIA System (Phadia, Uppsala, Sweden) were used. Sera were obtained from five adults and 73 children (30 female and 43 male) from Austria, Germany, Italy, Spain and France.
As to B1, the “IgE binding (% of patients)” value is 8.5 % of patients.

For B2, the “IgE binding (% of patients)” value is 30.8 % of patients.

Consider B3, for which the “IgE binding (% of patients)” value was 48.7 % of patients.

As to B4, the “IgE binding (% of patients)” value was 2.1 % of patients.

For B5, the “IgE binding (% of patients)” value is given as 5.1 % of patients.

As to B6, the “IgE binding (% of patients)” value is recorded as 9.0 % of patients.

As for B7, the “IgE binding (% of patients)” value is 50.0 % of patients.

As for B8, the “IgE binding (% of patients)” value is listed as 8.5 % of patients.

With B9, the “IgE binding (% of patients)” value is recorded as 44.9 % of patients.

With B10, the “IgE binding (% of patients)” value is reported as 55.1 % of patients.

A further test concerns Humanized Rat Basophil Leukaemia (RBL) cells (clone RBL-703/21). The test can be described thus: human RBL assay: β-hexosaminidase release of humanized RBL cells loaded with patients' serum IgE. The format is cell-based. Conditions: percentage of 78 patients' sera triggering β-hexosaminidase release; milk components 0.3 μg/ml.
From the text: A scientifically approved model to test biological reactivity of molecules is induction of histamine release from human basophil granulocytes (Purohit 2005). For this purpose a rat basophil leukaemia cell line expressing the α-chain of the human FcεRI receptor (Hoffmann et al., Int Arch Allergy Immunol, Vol 126(4), p. 277-285) was used. Different milk components (n=33) including whole milk extracts from different species, milk fractions, purified natural and recombinant cow's milk proteins, and recombinant protein fragments were tested. The percentages of 78 patients whose serum IgE antibodies trigger β-hexosaminidase release of the humanized RBL cells in response to the individual milk components were determined (FIG. 3).
as §1
Humanized Rat Basophil Leukaemia (RBL) cells (clone RBL-703/21) were incubated in microtiter plates overnight at 37° C. (7% CO2, 95% humidity) with 50 μl human sera, diluted 1:10. Afterwards cells were washed and exposed to milk components, diluted to 0.3 μg/ml protein in Tyrodes buffer containing 50% D2O and 0.1% BSA/HAS for 1 hour at 37° C. (7% CO2, 95% humidity). Spontaneous release of the cells was also evaluated. Finally, the cell supernatants were incubated with 50 μl assay solution (0.1 M citric acid or sodium citrate, pH 4.5, 160 μM 4-methyl umbelliferyl-N-acetyl-β-D-glucosaminide) in new microtiter plates at 37° C. (7% CO2, 95% humidity) for 1 h. The reactions were stopped by addition of 100 μl glycine buffer per well and the fluorescence measured at λex: 360 and λem: 465 using a fluorescence microplate reader. The specific hexosaminidase release of each sample was calculated using the formula: [(FlS−FlSp):(FlZ−FlSp)]×100 (where […] is the fluorescence of the sample; FlSp is the fluorescence of the spontaneous release and FlZ is the fluorescence of the total release).
In the case of B1, the “biological activity (% of patients)” value is given as 4.3 % of patients.

Turning to B2, the “biological activity (% of patients)” value is recorded as 6.4 % of patients.

For the molecule B3, the “biological activity (% of patients)” value is reported as 19.2 % of patients.

Take B4: the “biological activity (% of patients)” value is 4.3 % of patients.

Regarding B5, the “biological activity (% of patients)” value is 2.6 % of patients.

On to B6, for which the “biological activity (% of patients)” value was 5.1 % of patients.

Take B7: the “biological activity (% of patients)” value is reported as 28.2 % of patients.

Consider B8, for which the “biological activity (% of patients)” value is 8.5 % of patients.

In the case of B9, the “biological activity (% of patients)” value is 34.6 % of patients.

For the molecule B10, the “biological activity (% of patients)” value is recorded as 10.3 % of patients.
